{"source": "paper PMC10516938", "about": "“Conformational dynamics of cohesin/Scc2 loading complex are regulated by Smc3 acetylation and ATP binding” (Nature Communications, 2023)", "binders": {"B1": {"name": "Scc2 D369C (natural protein, S. cerevisiae, UniProt Q04002 1-1493, looked up)", "chain": "MSYPGKDKNIPGRIIEALEDLPLSYLVPKDGLAALVNAPMRVSLPFDKTIFTSADDGRDVNINVLGTANSTTSSIKNEAEKERLVFKRPSNFTSSANSVDYVPTNFLEGLSPLAQSVLSTHKGLNDSINIEKKSEIVSRPEAKHKLESVTSNAGNLSFNDNSSNKKTKTSTGVTMTQANLAEQYLNDLKNILDIVGFDQNSAEIGNIEYWLQLPNKKFVLTTNCLTKLQMTIKNITDNPQLSNSIEITWLLRLLDVMVCNIKFSKSSLKMGLDDSMLRYIALLSTIVLFNIFLLGKNDSNLHRESYIMEPVNFLSDLIESLKILTIEYGSLKIEFDTFQEALELLPKYIRNGPFLDDNVTAKLVYIFSCLLMNNDIEATTNIQFQSFWDNVKRISSDILVSLFGSFDQQRGFIIEELLSHIEKLPTKRIQKKLRKVGNQNIYITDFTFTLMSMLENINCYSFCNQMKDIAPENIDLLKNEYKKQEEFLFNIVEHINDTILERFFKNPSALRYVIDNFVQDLLLLISSPQWPVTEKILSSLLKRLLSVYSPSMQVSANIETICLQLIGNIGSTIFDIKCSTRDHEDNNLIKMINYPETLPHFFKSFEECIAYNETIKCRRSATRFLWNLRLGTILILEEYTKDAKEQIITVDNELKKILEQIKDGGLGPELENREADFSTIKLDYFSILHAFELLNLYDPYLKLILSLLAKDKIKLRSTAIKCLSMLASKDKVILSNPMVKETIHRRLNDSSASVKDAILDLVSINSSYFEFYQQINNNYNDDSIMVRKHVLRINEKMYDETNDIVTKVYVIARILMKIEDEEDNIIDMARLILLNRWILKVHEVLDQPEKLKEISSSVLLVMSRVAIMNEKCSQLFDLFLNFYLLNKEAHSKEAYDKITHVLTILTDFLVQKIVELNSDDTNEKNSIVDKQNFLNLLAKFADSTVSFLTKDHITALYPYMVSDEKSDFHYYILQVFRCTFEKLANFKQKFLYDLETTLLSRLPKMNVREIDEAMPLIWSVATHRHDTARVAKACSSCLSHLHPYINKANNEEAAIVVDGKLQRLIYLSTGFARFCFPKPSNDKIAFLQEGETLYEHITKCLLVLSKDKITHVIRRVAVKNLTKLCGNHPKLFNSRHVLHLLDKEFQSDQLDIKLVILESLYDLFLLEERKSVRNTGVNSTLSSNSILKKKLLKTNRVEFANDGVCSALATRFLDNILQLCLLRDLKNSLVAIRLLKLILKFGYTNPSHSIPTVIALFASTSQYIRHVAYELLEDLFEKYETLVFSSLSRGVTKAIHYSIHTDEKYYYKHDHFLSLLEKLCGTGKKNGPKFFKVLKRIMQSYLDDITDLTSTNSSVQKSIFVLCTNISNITFVSQYDLVSLLKTIDLTTDRLKEVIMDEIGDNVSSLSVSEEKLSGIILIQLSLQDLGTYLLHLYGLRDDVLLLDIVEESELKNKQLPAKKPDISKFSAQLENIEQYSSNGKLLTYFRKHVKDT", "notes": "Scc2, S. cerevisiae; source: S. cerevisiae W303, in vivo, whole-cell extract"}}, "key": {"[1]": {"biological_target": "T1, Smc3^QQ R1008I K1004C (S. cerevisiae, UniProt P47037 1-1230, K112Q | K113Q | K1004C | R1008I)", "T1 construct": "Smc3, S. cerevisiae; also called smc3-QQ K1004C with R1008I; source: S. cerevisiae W303, late G1 arrested cells, whole-cell extract", "T1 sequence (looked up)": "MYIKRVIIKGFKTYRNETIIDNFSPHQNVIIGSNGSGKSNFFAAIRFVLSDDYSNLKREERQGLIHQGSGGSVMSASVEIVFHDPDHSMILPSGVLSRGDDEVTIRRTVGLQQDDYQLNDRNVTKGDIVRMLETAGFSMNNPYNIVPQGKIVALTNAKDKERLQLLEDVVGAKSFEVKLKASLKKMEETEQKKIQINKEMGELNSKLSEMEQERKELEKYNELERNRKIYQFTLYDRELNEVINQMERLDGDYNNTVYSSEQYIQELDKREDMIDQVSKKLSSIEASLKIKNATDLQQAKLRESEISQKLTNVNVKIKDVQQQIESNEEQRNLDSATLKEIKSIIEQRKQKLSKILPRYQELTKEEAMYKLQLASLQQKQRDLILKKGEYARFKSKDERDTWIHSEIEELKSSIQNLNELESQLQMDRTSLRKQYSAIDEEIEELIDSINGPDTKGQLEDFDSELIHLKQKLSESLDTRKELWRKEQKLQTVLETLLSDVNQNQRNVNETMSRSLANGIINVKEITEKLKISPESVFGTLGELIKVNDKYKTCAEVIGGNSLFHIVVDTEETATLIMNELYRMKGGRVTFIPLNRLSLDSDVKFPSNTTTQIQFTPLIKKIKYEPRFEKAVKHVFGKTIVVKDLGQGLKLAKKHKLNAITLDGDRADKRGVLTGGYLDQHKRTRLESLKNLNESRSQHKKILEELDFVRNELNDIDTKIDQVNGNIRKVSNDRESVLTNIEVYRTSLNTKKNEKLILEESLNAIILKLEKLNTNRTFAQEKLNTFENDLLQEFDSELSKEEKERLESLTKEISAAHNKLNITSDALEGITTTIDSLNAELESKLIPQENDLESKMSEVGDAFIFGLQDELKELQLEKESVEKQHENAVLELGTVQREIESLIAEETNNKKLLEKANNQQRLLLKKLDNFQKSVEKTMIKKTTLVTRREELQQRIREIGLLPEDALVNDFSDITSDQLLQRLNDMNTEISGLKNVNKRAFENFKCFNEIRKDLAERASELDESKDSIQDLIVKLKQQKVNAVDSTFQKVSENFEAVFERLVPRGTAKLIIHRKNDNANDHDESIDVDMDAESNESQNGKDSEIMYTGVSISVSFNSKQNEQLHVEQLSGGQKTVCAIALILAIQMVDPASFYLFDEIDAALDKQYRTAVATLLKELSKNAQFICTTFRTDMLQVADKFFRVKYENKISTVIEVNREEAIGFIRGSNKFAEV", "test": "cross-linking; in vivo BMOE cross-link of cysteine pairs in yeast cells arrested in late G1 by non-degradable Sic1(9m); Scc1-PK immunoprecipitated, western blot, band intensities quantified", "details": "partners not purified"}, "[2]": {"biological_target": "T2, Smc3^QQ K1004C (S. cerevisiae, UniProt P47037 1-1230, K112Q | K113Q | K1004C)", "T2 construct": "Smc3, S. cerevisiae; source: S. cerevisiae W303, late G1 arrested cells, whole-cell extract", "T2 sequence (looked up)": "T1 sequence (looked up) with I1008R", "test": "cross-linking; in vivo BMOE cross-link of cysteine pairs in yeast cells arrested in late G1 by non-degradable Sic1(9m); Scc1-PK immunoprecipitated, western blot, band intensities quantified", "details": "partners not purified"}}, "note": "Numbering of substitutions follows the chain as printed."}
{"binder": "B1", "values": [{"measurement": "crosslink relative to wild type", "setting": "[1]", "value": "~70", "unit": "%"}, {"measurement": "crosslinking efficiency relative to wild type", "setting": "[2]", "value": "~10", "unit": "%"}]}
